Like-named read-outs stand apart in the source and are kept apart here.
Columns and labels:
Test in all cases: SPR
[1] = molecular target: afucosylated Trastuzumab (TZM‐AF)
[2] = molecular target: galactosylated Trastuzumab (TZM‐GT)
[3] = molecular target: afucosylated Trastuzumab (TZM‐AF); remark: listed apart in the source
[4] = molecular target: galactosylated Trastuzumab (TZM‐GT); remark: listed apart in the source

| Substance | Kd [1] [nM] | SPR signal at 300 nM receptor [1] [RU] | Kd [2] [nM] | SPR signal at 300 nM receptor [2] [RU] | Kd [3] [nM] | Kd [4] [nM] |
| --- | --- | --- | --- | --- | --- | --- |
| FcγRIIA (from UniProt P12318) (receptor) | 250 | 40 | 180 | 40 | 200 | 170 |
| FcγRIIB (from UniProt P31994) (receptor) | 180 | 40 | 260 | 40 | 170 | 220 |

Source: article PMC12417749
